From patent US20200299403A1

Assays:
[1] = target: HER2 (HER2/c-erb-2 gene product) on SKBR3 cells (UniProt P04626); assay: FACS on SKBR3 cells, Alexa 647 Protein L detection, one site specific binding fit (column head prints 'SKBR3 Cell Binding IC50, nM')
[2] = target: HER2 (HER2/c-erb-2 gene product) on SKBR3 cells (UniProt P04626); assay: FACS on SKBR3 cells, one site specific binding fit

Q: How did the Kd [1] turn out when “trastuzumab scFv (VL_VH) with pN3F at position (-1), conjugated to DBCO-MMAF” was run?
A: The Kd was 14 nM.

Q: Which Kd [2] does the source give for scFv-Fc (-1) pN3F DBCO-MMAF (Fc fusion) here?
A: The Kd was 6.8 nM.
